Reference: patent US20090104204A1 (CRUCELL HOLLAND B V, published 2009)

B1: single-chain phage antibody SC02-430 (scFv)
scFv: QVQLQESGPGLVKPSQTLSLTCTVSGGSISSGGYYWSWIRQPPGKGLEWIGYIYYSGSTYYNSSLKSRVTISVDTSKNQFSLKLSSVTAADTAVYYCAKTVMNSFFDWGQGTLVTVSSGGGGSGGGGSGGGGSEIELTQPPSVSGSPGQSITISCTGTSSDVGSYNLVSWYQQHPGKAPKLMIYEVSKRPSGVSNRFSGSKSGNTASLTISGLQAEDEADYYCCSYAGSSWVFGGGTKLTVL
notes: Selected from the semi-synthetic library JK1994 on S. aureus strain Cowan; also called scFv SC02-430
B2: single-chain phage antibody SC05-133 (scFv)
scFv: EVQLVETGGGLVKPGGSLRLSCSASRFSFRDYYMTWIRQAPGKGPEWVSHISGSGSTIYYADSVRGRFTISRDNAKSSLYLQMDSLQADDTAVYYCARGGRATSYYWVHWGPGTLVTVSSGTGGSGGTGSGTGGSTEIVLTQSPATLSLSPGERATLSCRASQSVSGYLGWYQQKPGQAPRLLIYGASSRATGIPDRFSGSGSGTDFTLTISRLEPEDFAVYYCQQYGSSPLTFGGGTKLEIKR
notes: also called scFv SC05-133

What was measured:
bovine serum albumin [1] = target: T1, bovine serum albumin (bovine, UniProt P02769 25-607); assay: ELISA, phage antibody on coated 1% BSA, anti-M13 peroxidase
T1 construct: Negative control antigen in the non-specific reactivity ELISA; also called BSA; BSA (1%)
T1 sequence (P02769 25-607 limits assumed): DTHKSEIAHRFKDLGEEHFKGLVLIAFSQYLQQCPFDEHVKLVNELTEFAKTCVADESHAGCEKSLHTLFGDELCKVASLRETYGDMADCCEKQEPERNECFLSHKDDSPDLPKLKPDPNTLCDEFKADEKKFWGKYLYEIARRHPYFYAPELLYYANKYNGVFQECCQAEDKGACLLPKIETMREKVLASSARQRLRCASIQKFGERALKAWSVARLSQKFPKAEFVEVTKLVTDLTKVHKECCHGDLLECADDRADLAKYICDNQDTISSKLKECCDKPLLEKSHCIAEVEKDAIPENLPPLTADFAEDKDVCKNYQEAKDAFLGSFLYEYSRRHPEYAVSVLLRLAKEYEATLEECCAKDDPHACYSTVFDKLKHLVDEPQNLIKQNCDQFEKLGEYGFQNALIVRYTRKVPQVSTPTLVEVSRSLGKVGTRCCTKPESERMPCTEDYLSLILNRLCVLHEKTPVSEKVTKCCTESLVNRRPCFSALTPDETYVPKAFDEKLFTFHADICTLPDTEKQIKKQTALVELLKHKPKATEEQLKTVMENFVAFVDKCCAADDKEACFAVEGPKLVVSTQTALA
Method: (§1) To test for non-specific reactivity against non-bacterial antigens an ELISA assay was used. The complex antigens 5% FBS, 2% ELK and 1% BSA were coated overnight to Maxisorp™ ELISA plates. Selected single-chain phage antibodies were incubated for 15 minutes in an equal volume of PBS containing 1% BSA to obtain blocked phage antibodies. The plates were emptied, and the blocked single-chain phage antibodies were added to the wells. Incubation was allowed to proceed for two hours at room temperature, the plates were washed in PBS containing 0.1% v/v Tween-20 and bound phage antibodies were detected by means of OD 492 nm measurement using an anti-M13 antibody conjugated to peroxidase. As a control, the procedure was performed simultaneously without single-chain phage antibody, with a negative control single-chain phage antibody directed against West Nile virus envelope protein (SC04-374).

bovine serum albumin [2] = target: T1, bovine serum albumin; assay: ELISA, phage antibody on coated 1% BSA, anti-M13 peroxidase, OD 492 nm
Method: as §1

| Binder | ELISA (OD492 nm) (bovine serum albumin [1]) | binding result (bovine serum albumin [2]) |
| --- | --- | --- |
| B1 | 0.04 | no binding |
| B2 | 0.04 | no binding |
